Measurements: US20110251256A1 (KOREA UNIVERSITY INDUSTRIAL AND ACADEMIC COLLABORATIVE …, published 2011)

B2: M-Cadherin (endogenous protein of C2C12 myotubes) (other, UniProt P33146 60-784, looked up)
chain: LPYPLVQIKSDKQQLGSVIYSIQGPGVDEEPRNVFSIDKFTGRVYLNATLDREKTDRFRLRAFALDLGGSTLEDPTDLEIVVVDQNDNRPAFLQDVFRGRILEGAIPGTFVTRAEATDADDPETDNAALRFSILEQGSPEFFSIDEHTGEIRTVQVGLDREVVAVYNLTLQVADMSGDGLTATASAIISIDDINDNAPEFTKDEFFMEAAEAVSGVDVGRLEVEDKDLPGSPNWVARFTILEGDPDGQFKIYTDPKTNEGVLSVVKPLDYESREQYELRVSVQNEAPLQAAAPRARRGQTRVSVWVQDTNEAPVFPENPLRTSIAEGAPPGTSVATFSARDPDTEQLQRISYSKDYDPEDWLQVDGATGRIQTQRVLSPASPFLKDGWYRAIILALDNAIPPSTATGTLSIEILEVNDHAPALALPPSGSLCSEPDQGPGLLLGATDEDLPPHGAPFHFQLNPRVPDLGRNWSVSQINVSHARLRLRHQVSEGLHRLSLLLQDSGEPPQQREQTLNVTVCRCGSDGTCLPGAAALRGGGVGVSLGALVIVLASTVVLLVLILLAALRTRFRGHSRGKSLLHGLQEDLRDNILNYDEQGGGEEDQDAYDINQLRHPVEPRATSRSLGRPPLRRDAPFSYVPQPHRVLPTSPSDIANFISDGLEAADSDPSVPPYDTALIYDYEGDGSVAGTLSSILSSLGDEDQDYDYLRDWGPRFARLADMYGHQ

What was measured:
[1] = target: T1, IRS-1 (endogenous protein of C2C12 cells) (UniProt P35569 1-1233); assay: endogenous immunoprecipitation in C2C12 myotubes treated with IGF-I for 0, 5 and 30 minutes (FIG. 9A)
T1 construct: also called insulin receptor substrate-1
T1 sequence (looked up): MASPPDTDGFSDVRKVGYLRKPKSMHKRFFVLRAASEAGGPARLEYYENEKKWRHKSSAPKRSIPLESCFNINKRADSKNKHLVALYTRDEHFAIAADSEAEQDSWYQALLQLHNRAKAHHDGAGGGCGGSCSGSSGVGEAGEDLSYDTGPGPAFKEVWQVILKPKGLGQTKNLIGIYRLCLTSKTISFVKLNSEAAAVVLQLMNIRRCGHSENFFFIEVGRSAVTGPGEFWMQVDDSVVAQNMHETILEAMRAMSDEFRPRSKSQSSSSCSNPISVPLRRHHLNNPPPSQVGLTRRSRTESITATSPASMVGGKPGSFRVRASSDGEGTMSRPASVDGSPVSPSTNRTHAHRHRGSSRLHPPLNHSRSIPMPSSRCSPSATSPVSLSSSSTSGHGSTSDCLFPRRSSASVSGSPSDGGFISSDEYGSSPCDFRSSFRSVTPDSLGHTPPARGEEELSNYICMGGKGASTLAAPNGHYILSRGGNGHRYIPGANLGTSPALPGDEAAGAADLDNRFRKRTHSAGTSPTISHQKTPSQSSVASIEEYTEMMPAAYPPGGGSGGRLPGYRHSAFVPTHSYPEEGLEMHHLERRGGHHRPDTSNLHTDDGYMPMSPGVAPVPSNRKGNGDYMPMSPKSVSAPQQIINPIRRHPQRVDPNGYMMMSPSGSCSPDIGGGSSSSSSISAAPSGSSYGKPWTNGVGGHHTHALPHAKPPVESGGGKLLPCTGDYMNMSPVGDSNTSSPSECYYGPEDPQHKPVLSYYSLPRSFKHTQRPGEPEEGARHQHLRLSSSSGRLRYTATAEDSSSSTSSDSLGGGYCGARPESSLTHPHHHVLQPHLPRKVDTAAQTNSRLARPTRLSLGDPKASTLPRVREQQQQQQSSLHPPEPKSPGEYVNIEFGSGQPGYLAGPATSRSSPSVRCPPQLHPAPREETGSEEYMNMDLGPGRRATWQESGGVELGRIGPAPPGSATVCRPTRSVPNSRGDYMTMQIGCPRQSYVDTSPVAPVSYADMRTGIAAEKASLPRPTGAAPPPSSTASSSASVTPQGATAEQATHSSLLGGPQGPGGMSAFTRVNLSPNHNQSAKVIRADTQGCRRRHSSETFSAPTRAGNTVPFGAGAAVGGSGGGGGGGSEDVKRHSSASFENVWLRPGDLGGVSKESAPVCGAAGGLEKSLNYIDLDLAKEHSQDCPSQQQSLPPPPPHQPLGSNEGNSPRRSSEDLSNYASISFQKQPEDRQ
Procedure: Western blotting and immunostaining were performed as described in Kim, K. B. et al. Proteomics 6, 2444-53 (2006). For immunoprecipitation, cells were lysed in buffer containing 20 mM Tris-HCl pH 7.4, 137 mM NaCl, 1 mM MgCl₂, 1 mM CaCl₂, 20 mM NaF, 10 mM Na₄P₂O₇, 1% NP-40, 1 mM Na₃VO₄, 1 mM PMSF and protease inhibitor cocktail (Roche). The whole cell lysates (600 μg protein) were incubated with specific antibodies for 90 min and then with 50 μl of Protein A-sepharose or G-agarose bead (50%) slurry for 1 h. The immunoprecipitates were analyzed by Western blotting.
Next, the effect of TRIM72 on IGF-1-induced tyrosine phosphorylation of IGFR and IRS-1 was investigated. The tyrosine phosphorylation of IGFR induced by IGF-I was not changed by TRIM72 overexpression or knockdown (FIG. 8). […] Moreover, the molecular association of IRS-1 with PI3K after IGF-I stimulation was weakened by TRIM72 overexpression, but fortified by TRIM72 knockdown. […] In order to analyze the binding domains of TRIM72 and IRS-1, various mutants of both genes were manufactured (FIG. 9B) and transfected into 293 cells. Then, the binding activity was investigated by immunoprecipitation. […] It should be noted that the 293 cells were treated with MG132 (proteasome inhibitor) after transferring IRS-1 and TRIM72.

[2] = target: T2, M-Cadherin (endogenous protein of C2C12 myotubes), P33146
T2 chain: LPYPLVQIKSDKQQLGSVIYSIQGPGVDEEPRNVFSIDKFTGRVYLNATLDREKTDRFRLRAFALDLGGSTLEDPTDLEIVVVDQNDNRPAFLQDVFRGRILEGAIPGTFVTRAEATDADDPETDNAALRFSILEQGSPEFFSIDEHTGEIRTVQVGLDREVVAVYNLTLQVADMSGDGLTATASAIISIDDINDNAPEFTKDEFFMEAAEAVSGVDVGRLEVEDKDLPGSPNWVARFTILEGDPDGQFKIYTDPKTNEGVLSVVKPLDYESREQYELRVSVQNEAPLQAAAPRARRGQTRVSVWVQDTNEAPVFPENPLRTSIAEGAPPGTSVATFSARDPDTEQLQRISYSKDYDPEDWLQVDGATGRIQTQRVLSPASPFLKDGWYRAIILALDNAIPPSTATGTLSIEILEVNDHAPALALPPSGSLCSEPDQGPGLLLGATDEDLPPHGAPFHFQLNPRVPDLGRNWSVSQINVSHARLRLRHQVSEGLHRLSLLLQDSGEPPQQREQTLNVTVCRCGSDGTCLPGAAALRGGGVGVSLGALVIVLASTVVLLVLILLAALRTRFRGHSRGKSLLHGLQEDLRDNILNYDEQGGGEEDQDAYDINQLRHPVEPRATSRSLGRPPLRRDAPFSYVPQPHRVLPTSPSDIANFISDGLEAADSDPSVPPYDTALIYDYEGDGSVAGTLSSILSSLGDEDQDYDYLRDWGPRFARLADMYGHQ

[3] = target: T3, IRS-1 (endogenous protein of C2C12 cells), P35569
T3 chain: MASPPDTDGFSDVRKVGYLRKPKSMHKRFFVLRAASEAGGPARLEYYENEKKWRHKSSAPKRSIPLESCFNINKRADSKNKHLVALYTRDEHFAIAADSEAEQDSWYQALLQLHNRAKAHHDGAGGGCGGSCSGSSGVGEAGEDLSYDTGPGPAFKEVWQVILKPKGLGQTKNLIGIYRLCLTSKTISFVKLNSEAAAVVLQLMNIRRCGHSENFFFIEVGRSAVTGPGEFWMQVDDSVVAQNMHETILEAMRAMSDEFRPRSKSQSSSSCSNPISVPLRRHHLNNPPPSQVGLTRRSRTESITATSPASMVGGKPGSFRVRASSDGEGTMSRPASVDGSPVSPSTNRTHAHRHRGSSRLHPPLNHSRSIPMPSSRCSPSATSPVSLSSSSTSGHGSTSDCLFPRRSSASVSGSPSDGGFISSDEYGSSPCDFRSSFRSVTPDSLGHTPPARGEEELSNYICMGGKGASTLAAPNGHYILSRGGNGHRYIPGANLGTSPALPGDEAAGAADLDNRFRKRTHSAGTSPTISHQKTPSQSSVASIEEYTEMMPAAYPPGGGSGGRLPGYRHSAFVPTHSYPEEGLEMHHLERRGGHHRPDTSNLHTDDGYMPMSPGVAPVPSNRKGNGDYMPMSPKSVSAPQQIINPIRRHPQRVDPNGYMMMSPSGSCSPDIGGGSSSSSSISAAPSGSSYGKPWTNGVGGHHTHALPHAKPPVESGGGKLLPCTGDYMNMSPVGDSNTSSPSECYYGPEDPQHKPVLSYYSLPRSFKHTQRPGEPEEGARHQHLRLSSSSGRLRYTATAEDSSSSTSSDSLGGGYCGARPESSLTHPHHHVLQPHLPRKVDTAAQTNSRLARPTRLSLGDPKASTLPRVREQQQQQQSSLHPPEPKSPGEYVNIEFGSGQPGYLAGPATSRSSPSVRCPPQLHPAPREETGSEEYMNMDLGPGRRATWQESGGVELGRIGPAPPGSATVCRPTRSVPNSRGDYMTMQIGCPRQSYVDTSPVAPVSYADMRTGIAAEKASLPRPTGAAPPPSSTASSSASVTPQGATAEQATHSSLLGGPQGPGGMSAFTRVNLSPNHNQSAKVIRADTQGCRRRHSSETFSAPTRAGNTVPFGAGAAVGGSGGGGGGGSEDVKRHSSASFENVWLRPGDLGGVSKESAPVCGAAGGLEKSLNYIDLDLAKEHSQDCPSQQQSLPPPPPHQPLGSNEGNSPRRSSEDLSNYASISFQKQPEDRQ

[4] = target: B2; assay: immunoprecipitation of myotube protein with TRIM72 antibody or M-Cadherin antibody (FIGS. 12G and 12H)
[5] = target: T4, β-Catenin (endogenous protein of C2C12 myotubes) (UniProt Q02248 2-781); assay: immunoprecipitation from myotubes treated with Si-Control or Si-TRIM72 (FIG. 12F)
T4 construct: also called 13-Catenin
T4 sequence (looked up): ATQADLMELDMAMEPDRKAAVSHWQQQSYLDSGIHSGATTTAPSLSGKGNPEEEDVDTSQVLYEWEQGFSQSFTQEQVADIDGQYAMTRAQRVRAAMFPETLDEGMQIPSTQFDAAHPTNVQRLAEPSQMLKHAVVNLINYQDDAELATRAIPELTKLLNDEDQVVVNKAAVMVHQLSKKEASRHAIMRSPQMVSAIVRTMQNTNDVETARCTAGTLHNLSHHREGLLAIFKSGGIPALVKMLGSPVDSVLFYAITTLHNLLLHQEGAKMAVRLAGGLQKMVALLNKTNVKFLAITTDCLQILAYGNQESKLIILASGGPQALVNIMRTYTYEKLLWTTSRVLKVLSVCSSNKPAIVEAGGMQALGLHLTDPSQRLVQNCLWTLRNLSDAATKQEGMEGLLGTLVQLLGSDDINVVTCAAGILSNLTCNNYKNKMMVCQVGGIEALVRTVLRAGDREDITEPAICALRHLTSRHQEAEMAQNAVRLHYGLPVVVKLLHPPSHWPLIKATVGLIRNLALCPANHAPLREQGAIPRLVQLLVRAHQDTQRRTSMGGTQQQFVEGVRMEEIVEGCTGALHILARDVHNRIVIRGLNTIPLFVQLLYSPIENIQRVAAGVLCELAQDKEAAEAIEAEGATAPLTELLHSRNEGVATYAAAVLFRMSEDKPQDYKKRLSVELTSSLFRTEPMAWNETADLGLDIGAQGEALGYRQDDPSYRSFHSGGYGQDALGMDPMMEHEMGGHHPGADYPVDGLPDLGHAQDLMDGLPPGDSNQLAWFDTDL

B1: TRIM72 (endogenous protein of C2C12 myotubes) (enzyme)
chain: MSAAPGLLRQELSCPLCLQLFDAPVTAECGHSFCRACLIRVAGEPAADGTVACPCCQAPTRPQALSTNLQLSRLVEGLAQVPQGHCEEHLDPLSIYCEQDRTLVCGVCASLGSHRGHRLLPAAEAQARLKTQLPQQKMQLQEACMRKEKTVAVLEHQLVEVEETVRQFRGAVGEQLGKMRMFLAALESSLDREAERVRGDAGVALRRELSSLNSYLEQLRQMEKVLEEVADKPQTEFLMKFCLVTSRLQKILSESPPPARLDIQLPVISDDFKFQVWKKMFRALMPALEELTFDPSSAHPSLVVSSSGRRVECSDQKAPPAGEDTRQFDKAVAVVAQQLLSQGEHYWEVEVGDKPRWALGVMAADASRRGRLHAVPSQGLWLLGLRDGKILEAHVEAKEPRALRTPERPPARIGLYLSFADGVLAFYDASNPDVLTPIFSFHERLPGPVYPIFDVCWHDKGKNAQPLLLVGPEQEQA
notes: Endogenous protein in lysates of C2C12 myotubes; also called tripartite motif-containing 72
In the case of B1, the binding result [1] is reported as “binds”, the “ubiquitination of M-Cadherin in myotubes with reduced TRIM72” value [2] is reported as “Si-Control treated cells showed stained band (which denotes ubiquitination), whereas Si-TRIM72-treated cells did not” and the “molecular association of IRS-1 with PI3K after IGF-I stimulation” value [3] is reported as “the molecular association of IRS-1 with PI3K after IGF-I stimulation was weakened by TRIM72 overexpression, but fortified by TRIM72 knockdown”. For the same binder, the “tyrosine phosphorylation of IRS-1 induced by IGF-I” value [3] was “the tyrosine phosphorylation of IRS-1 was decreased by TRIM72 overexpression, but increased by TRIM72 knockdown” and the binding result [4] was “binds”.

B2: binds [5].
